This experiment deals with adipose-derived mesenchymal stem cells (ADSC). Description: Amount of exosomes produced from ADSC, measured with Exo Counter (CD81 sandwich immunoassay) after excluding single factors. Conditions: 48-hour culture in DMEM F12 on nonwoven fabric; one factor excluded from the eight factors of Table 1, compared with all eight added; CD81 on exosome surface detected in culture supernatant; FIG. 1. The experiment is classed as cell-based. Here is the method:
4×10^4 adipose-derived mesenchymal stem cells (ADSC) were seeded in each well. A nonwoven fabric (3D, BioNOCII, CESCO BIOENGINEERING CO., LTD. in non-adhesive 24 well plate (PrimeSurface (registered trademark) Sumitomo Bakelite Co., Ltd.) was used for cell culture. A basal medium was 1.5 ml of 10% FBS/DMEM F12 (Sigma-Aldrich). The number of days of culture was 6. Starting from Day 2, 1.5 ml of medium was exchanged daily, and the amount of sugar consumed in the used culture medium was measured.
Next, in the cell culture for 48 hours on Day 7 and Day 8, DMEM F12 was used as a medium so as to collect exosomes. In this 48-hour culture, 10% ExoFBS (Funakoshi Co., Ltd.) was added in Test #1. ExoFBS is a product from which bovine-derived exosomes are removed; therefore, influence on an exosome research is reduced.
In Test #3 of the 48-hour culture, only factor A was excluded from the eight factors shown in Table 1, and the other factors were added. In Test #4 of the 48-hour culture, only factor B was excluded from the eight factors shown in Table 1, and the other factors were added. […]
The amount of exosomes produced from ADSC was measured with Exo Counter (Kenwood), using 50 μl each from 1.5 ml of the collected culture supernatant. […] CD81 on the exosome surface was detected to quantify the exosome amount.

B1: SCGF (protein, UniProt Q9Y240 22-323, looked up)
C-type lectin domain family …: ARGAEREWEGGWGGAQEEEREREALMLKHLQEALGLPAGRGDENPAGTVEGKEDWEMEEDQGEEEEEEATPTPSSGPSPSPTPEDIVTYILGRLAGLDAGLHQLHVRLHALDTRVVELTQGLRQLRNAAGDTRDAVQALQEAQGRAEREHGRLEGCLKGLRLGHKCFLLSRDFEAQAAAQARCTARGGSLAQPADRQQMEALTRYLRAALAPYNWPVWLGVHDRRAEGLYLFENGQRVSFFAWHRSPRPELGAQPSASPHPLSPDQPNGGTLENCVAQASDDGSWWDHDCQRRLYYVCEFPF
notes: 29-kDa protein having no N-type sugar chain, belongs to a C-type lectin family
For B1, the “effect of the factor on the amount of exosomes produced” value is “inhibits the production of exosomes”.

These data come from patent US20240279611A1, “EXOSOME PRODUCTION PROMOTING AGENT AND EXOSOME PRODUCTION PROMOTING METHOD” (FULLSTEM CO., LTD., priority 2021, published 2024).
